Source: patent publication US6962973B1, “Porcine α2δ-1 calcium channel subunit cDNA and soluble secreted α2δ-1 subunit polypeptides” (Warner-Lambert Company, priority 1999, dated 2005)

B1: mutant extending to residue 1063: C-terminally truncated porcine α2δ-1 subunit, residues 1064 to 1091 deleted (protein, listed as Sus scrofa)
chain: MAAGCLLALTLTLFQSLLIGPSSQEPFPSAVTIKSWVDKMQEDLVTLAKTASGVNQLVDIYEKYQDLYTVEPNNARQLVEIAARDIEKLLSNRSKALVRLALEAEKVQAAHQWREDFASNEVVYYNAKDDLDPEKNDSEPGSQRIKPVFIDDANFGRQISYQHAAVHIPTDIYEGSTIVLNELNWTSALDEVFKKNREEDPSLLWQVFGSATGLARYYPASPWVDNSRTPNKIDLYDVRRRPWYIQGAASPKDMLILVDVSGSVSGLTLKLIRTSVSEMLETLSDDDFVNVASFNSNAQDVSCFQHLVQANVRNKKVLKDAVNNITAKGITDYKKGFSFAFEQLLNYNVSRANCNKIIMLFTDGGEERAQEIFAKYNKDKKVRVFTFSVGQHNYDRGPIQWMACENKGYYYEIPSIGAIRINTQEYLDVLGRPMVLAGDKAKQVQWTNVYLDALELGLVITGTLPVFNITGQNENKTNLKNQLILGVMGVDVSLEDIKRLTPRFTLCPNGYYFAIDPNGYVLLHPNLQPKNPKSQEPVTLDFLDAELENDIKVEIRNKMIDGESGEKTFRTLVKSQDERYIDKGNRTYTWTPVNGTDYSLALVLPTYSFYYIKAKIEETITQARSKKGKMKDSETLKPDNFEESGYTFIAPRDYCNDLKISDNNTEFLLNFNEFIDRKTPNNPSCNTDLINRVLLDAGFTNELVQNYWSKQKNIKGVKARFVVTDGGITRVYPKEAGENWQENPETYEDSFYKRSLDNDNYVFTAPYFNKSGPGAYESGIMVSKAVEIYIQGKLLKPAVVGIKIDVNSWIENFTKTSIRDPCAGPVCDCKRNSDVMDCVILDDGGFLLMANHDDYTNQIGRFFGEIDPSLMRHLVNISVYAFNKSYDYQSVCEPGAAPKQGAGHRSAYVPSIADILHIGWWATAAAWSILQQFLLSLTFPRLLEAVEMEDDDFTASLSKQSCITEQTQYFFDNDSKSFSGVLDCGNCSRIFHVEKLMNTNLIFIMVESKGTCPCDTRLLIQAEQTSDGPDPCDMVKQPRYRKGPDVCFDNNALEDYTDCGGVS
B2: mutant extending to residue 1018: C-terminally truncated porcine α2δ-1 subunit, residues 1019 to 1091 deleted (protein, listed as Sus scrofa)
chain: MAAGCLLALTLTLFQSLLIGPSSQEPFPSAVTIKSWVDKMQEDLVTLAKTASGVNQLVDIYEKYQDLYTVEPNNARQLVEIAARDIEKLLSNRSKALVRLALEAEKVQAAHQWREDFASNEVVYYNAKDDLDPEKNDSEPGSQRIKPVFIDDANFGRQISYQHAAVHIPTDIYEGSTIVLNELNWTSALDEVFKKNREEDPSLLWQVFGSATGLARYYPASPWVDNSRTPNKIDLYDVRRRPWYIQGAASPKDMLILVDVSGSVSGLTLKLIRTSVSEMLETLSDDDFVNVASFNSNAQDVSCFQHLVQANVRNKKVLKDAVNNITAKGITDYKKGFSFAFEQLLNYNVSRANCNKIIMLFTDGGEERAQEIFAKYNKDKKVRVFTFSVGQHNYDRGPIQWMACENKGYYYEIPSIGAIRINTQEYLDVLGRPMVLAGDKAKQVQWTNVYLDALELGLVITGTLPVFNITGQNENKTNLKNQLILGVMGVDVSLEDIKRLTPRFTLCPNGYYFAIDPNGYVLLHPNLQPKNPKSQEPVTLDFLDAELENDIKVEIRNKMIDGESGEKTFRTLVKSQDERYIDKGNRTYTWTPVNGTDYSLALVLPTYSFYYIKAKIEETITQARSKKGKMKDSETLKPDNFEESGYTFIAPRDYCNDLKISDNNTEFLLNFNEFIDRKTPNNPSCNTDLINRVLLDAGFTNELVQNYWSKQKNIKGVKARFVVTDGGITRVYPKEAGENWQENPETYEDSFYKRSLDNDNYVFTAPYFNKSGPGAYESGIMVSKAVEIYIQGKLLKPAVVGIKIDVNSWIENFTKTSIRDPCAGPVCDCKRNSDVMDCVILDDGGFLLMANHDDYTNQIGRFFGEIDPSLMRHLVNISVYAFNKSYDYQSVCEPGAAPKQGAGHRSAYVPSIADILHIGWWATAAAWSILQQFLLSLTFPRLLEAVEMEDDDFTASLSKQSCITEQTQYFFDNDSKSFSGVLDCGNCSRIFHVEKLMNTNLIFIMVESKGTCPCDTRL
B3: mutant extending to residue 1036: C-terminally truncated porcine α2δ-1 subunit, residues 1037 to 1091 deleted (protein, listed as Sus scrofa)
chain: MAAGCLLALTLTLFQSLLIGPSSQEPFPSAVTIKSWVDKMQEDLVTLAKTASGVNQLVDIYEKYQDLYTVEPNNARQLVEIAARDIEKLLSNRSKALVRLALEAEKVQAAHQWREDFASNEVVYYNAKDDLDPEKNDSEPGSQRIKPVFIDDANFGRQISYQHAAVHIPTDIYEGSTIVLNELNWTSALDEVFKKNREEDPSLLWQVFGSATGLARYYPASPWVDNSRTPNKIDLYDVRRRPWYIQGAASPKDMLILVDVSGSVSGLTLKLIRTSVSEMLETLSDDDFVNVASFNSNAQDVSCFQHLVQANVRNKKVLKDAVNNITAKGITDYKKGFSFAFEQLLNYNVSRANCNKIIMLFTDGGEERAQEIFAKYNKDKKVRVFTFSVGQHNYDRGPIQWMACENKGYYYEIPSIGAIRINTQEYLDVLGRPMVLAGDKAKQVQWTNVYLDALELGLVITGTLPVFNITGQNENKTNLKNQLILGVMGVDVSLEDIKRLTPRFTLCPNGYYFAIDPNGYVLLHPNLQPKNPKSQEPVTLDFLDAELENDIKVEIRNKMIDGESGEKTFRTLVKSQDERYIDKGNRTYTWTPVNGTDYSLALVLPTYSFYYIKAKIEETITQARSKKGKMKDSETLKPDNFEESGYTFIAPRDYCNDLKISDNNTEFLLNFNEFIDRKTPNNPSCNTDLINRVLLDAGFTNELVQNYWSKQKNIKGVKARFVVTDGGITRVYPKEAGENWQENPETYEDSFYKRSLDNDNYVFTAPYFNKSGPGAYESGIMVSKAVEIYIQGKLLKPAVVGIKIDVNSWIENFTKTSIRDPCAGPVCDCKRNSDVMDCVILDDGGFLLMANHDDYTNQIGRFFGEIDPSLMRHLVNISVYAFNKSYDYQSVCEPGAAPKQGAGHRSAYVPSIADILHIGWWATAAAWSILQQFLLSLTFPRLLEAVEMEDDDFTASLSKQSCITEQTQYFFDNDSKSFSGVLDCGNCSRIFHVEKLMNTNLIFIMVESKGTCPCDTRLLIQAEQTSDGPDPCDMVK

Assay: [3H]gabapentin binding of C-terminally truncated porcine α2δ-1 subunit mutants expressed in COS-7 cells
Settings: C-terminal deletions of the δ component, residues of SEQ ID NO:5
Procedure: All media contained 50 units/ml penicillin and 50 microgramm per ml streptomycin. COS-7 cells were maintained in Dulbecco's modified Eagle's medium+glutamax, 10% fetal bovine serum (gamma irradiated) in a 37° C./5% CO2 incubator and passaged by trypsinization. For transient expression experiments, 150-mm culture dishes were seeded with […] and incubated for 16 h. Cells were then washed twice with 30 ml of optiMEM-1 and transfected (t=0 h) with 30 microgramm of plasmid DNA by lipofectamine-mediated transfection in 21 ml of optiMEM-1. At t=6 h, a further 21 ml of optiMEM-1 was added. At t=24 h, the medium was replaced with 42 ml of optiMEM-1. At t=48 h, the cells were washed twice with 30 ml of phosphate-buffered saline and then harvested in 3 ml of buffer A ([…], 1 mM EGTA, 20% glycerol, 10 mm HEPES, pH 7.4, at 4° C.) plus 0.1 mM phenymethylsulfonyl fluoride using a cell scraper.
All subsequent operations were performed at 4° C. The cells were rotated on a Spiramix (Denley Instruments) for 30 min, centrifuged at 20,000×g for 5 min, resuspended in 1 ml of buffer A, recentrifuged at 20,000×g for 5 min, and finally resuspended in 400 microliter of buffer A. Membrane preparations were stored at −70° C. until required.
Protein concentrations were determined by the method of Bradford using bovine serum albumin as a standard. [^3H]Gabapentin binding assays were performed as described previously. For saturation analysis, incubations were performed in duplicate. All other incubations were performed in triplicate. SDS-polyacrylamide gel electrophoresis and Western blotting were performed using the Novex gel and buffer system (Novex Europe, Frankfurt, Germany). Molecular weights were determined by reference to Kaleidoscope markers (Bio-Rad). Detection was performed using the ECL system (Amersham).

Molecule	[^3H]gabapentin binding
B1	exhibit gabapentin binding activity
B2	exhibit gabapentin binding activity
B3	exhibit gabapentin binding activity
